Source: patent publication US20240377408A1 (ENCODIA, published 2024)
Ends that are not written are not given here. * marks the point of attachment. Benzoyl(4-SO2NH2) = NS(=O)(=O)c1ccc(C(=O)*)cc1; M65 = not defined here; M67 = not defined here; M75 = not defined here; M76 = not defined here; M88 = not defined here

B1: (SAB)AAAAE (peptide)
peptide: {Benzoyl(4-SO2NH2)}-AAAAE-NH2
SMILES: C[C@H](NC(=O)c1ccc(S(N)(=O)=O)cc1)C(=O)N[C@@H](C)C(=O)N[C@@H](C)C(=O)N[C@@H](C)C(=O)N[C@@H](CCC(=O)O)C(N)=O
B2: (SAB)AFAAE (peptide)
peptide: {Benzoyl(4-SO2NH2)}-AFAAE-NH2
SMILES: C[C@H](NC(=O)c1ccc(S(N)(=O)=O)cc1)C(=O)N[C@@H](Cc1ccccc1)C(=O)N[C@@H](C)C(=O)N[C@@H](C)C(=O)N[C@@H](CCC(=O)O)C(N)=O
B3: (SAB)HAAAE (peptide)
peptide: {Benzoyl(4-SO2NH2)}-HAAAE-NH2
SMILES: C[C@H](NC(=O)[C@H](C)NC(=O)[C@H](Cc1c[nH]cn1)NC(=O)c1ccc(S(N)(=O)=O)cc1)C(=O)N[C@@H](C)C(=O)N[C@@H](CCC(=O)O)C(N)=O
B4: (SAB)SAAAE (peptide)
peptide: {Benzoyl(4-SO2NH2)}-SAAAE-NH2
SMILES: C[C@H](NC(=O)[C@H](C)NC(=O)[C@H](CO)NC(=O)c1ccc(S(N)(=O)=O)cc1)C(=O)N[C@@H](C)C(=O)N[C@@H](CCC(=O)O)C(N)=O
B5: (SAB)FAAAE (peptide)
peptide: {Benzoyl(4-SO2NH2)}-FAAAE-NH2
SMILES: C[C@H](NC(=O)[C@H](C)NC(=O)[C@H](Cc1ccccc1)NC(=O)c1ccc(S(N)(=O)=O)cc1)C(=O)N[C@@H](C)C(=O)N[C@@H](CCC(=O)O)C(N)=O
B6: (SAB)EAAAE (peptide)
peptide: {Benzoyl(4-SO2NH2)}-EAAAE-NH2
SMILES: C[C@H](NC(=O)[C@H](C)NC(=O)[C@H](CCC(=O)O)NC(=O)c1ccc(S(N)(=O)=O)cc1)C(=O)N[C@@H](C)C(=O)N[C@@H](CCC(=O)O)C(N)=O
B7: (SAB)LAAAE (peptide)
peptide: {Benzoyl(4-SO2NH2)}-LAAAE-NH2
SMILES: CC(C)C[C@H](NC(=O)c1ccc(S(N)(=O)=O)cc1)C(=O)N[C@@H](C)C(=O)N[C@@H](C)C(=O)N[C@@H](C)C(=O)N[C@@H](CCC(=O)O)C(N)=O

Each binder was assayed against T1, human carbonic anhydrase 2 (wild-type hCAII) (Homo sapiens, UniProt P00918 4-259) (assay: cell-based or functional assay).

Binder	NTM-AAEIR IC50 (µM), colorimetric IC50 assay (pNPA hydrolysis by wild-type hCAII) [µM]
M88-AAEIR (reading uncertain; also: printed as M88-AAEIR) [M88-AAEIR]	0.095
M67-AAEIR (reading uncertain; also: printed as M67-AAEIR) [M67-AAEIR]	0.073
M65-AAEIR (reading uncertain; also: printed as M65-AAEIR) [M65-AAEIR]	0.515
M75-AAEIR (reading uncertain; also: printed as M75-AAEIR) [M75-AAEIR]	0.067
M76-AAEIR (reading uncertain; also: printed as M76-AAEIR) [M76-AAEIR]	0.077

Molecular target: T1, human carbonic anhydrase 2 (wild-type …)
Test: cell-based or functional assay
Remark: another data set of the same source

Binder	IC50 (µM), hCAII functional assay (p-nitrophenyl acetate hydrolysis) [µM]
B1	0.0484
B2	0.183
B3	0.148
B4	0.153
B5	0.045
B6	0.0993
B7	0.0284
